T1: human RANK-L (human, UniProt O14788 140-317, limits assumed)
T1 construct: Soluble protein, used coated, biotinylated or labelled in ELISA, AlphaScreen, FMAT and Biacore; also called hRANK-L; soluble human RANK-L
T1 sequence (looked up): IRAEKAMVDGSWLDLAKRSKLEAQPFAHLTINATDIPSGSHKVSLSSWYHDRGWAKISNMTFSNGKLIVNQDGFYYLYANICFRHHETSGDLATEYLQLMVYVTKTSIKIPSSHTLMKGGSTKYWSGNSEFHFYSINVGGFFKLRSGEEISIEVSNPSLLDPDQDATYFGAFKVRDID


Tests used:
human RANK-L [1] = biological target: T1, human RANK-L; test: AlphaScreen, biotin-hRANK-L / RANK-huFc beads
human RANK-L [2] = biological target: T1, human RANK-L; test: FMAT, ALEXA647-hRANK-L / RANK on HEK293T cells
human RANK-L [3] = biological target: T1, human RANK-L; test: AlphaScreen, biotin-hRANK-L / RANK-huFc beads; remark: listed apart in the source
human RANK-L [4] = biological target: T1, human RANK-L; test: SPR Biacore 3000, hRANK-L on CM5, 100 nM Nanobody
Experimental: (§1) Binding kinetics of the humanized versions of Nanobodu RANL13 were also analysed by Surface Plasmon Resonance (Biacore 3000). […] Nanobody binding was assessed at one concentration (100 nM). Each Nanobody was injected for 4 minutes at a flow rate of 45 μl/min to allow binding to chip-bound antigen. Next, binding buffer without Nanobody was sent over the chip at the same flow rate to allow spontaneous dissociation of bound Nanobody.

human RANK-L [5] = biological target: T1, human RANK-L; test: SPR Biacore 3000, hRANK-L on CM5, 100 nM Nanobody; only indicative (one concentration)
Experimental: as §1

Binder | IC50 (human RANK-L [1]) | IC50 (human RANK-L [2]) | IC50 (human RANK-L [3]) | koff (human RANK-L [4]) | Kd (human RANK-L [5]) | kon (human RANK-L [5])
RANKL13hum3 (VHH, name in Kabat numbering, also called RANL13hum3) VHH: EVQLVESGGGLVQPGGSLRLSCAASGRTFRSYPMGWFRQAPGKGREFVSSITGSGGSTYYADSVKGRFTISRDNAKNTLYLQMNSLRPEDTAVYSCAAYIRPDTYLSRDYRKYDYWGQGTLVTVSS | – | – | 0.196 nM | 0.000174 s⁻¹ | 0.264 nM | 659000 M⁻¹ s⁻¹
RANKL13hum4 (VHH, name in Kabat numbering) VHH: EVQLVESGGGLVQPGGSLRLSCAASGRTFRSYPMGWFRQAPGKGREFVASITGSGGSTYYADSVKGRFTISRDNAKNTLYLQMNSLRPEDTAVYYCAAYIRPDTYLSRDYRKYDYWGQGTLVTVSS | – | – | 0.223 nM | 0.000204 s⁻¹ | 0.538 nM | 379000 M⁻¹ s⁻¹
RANKL18hum1 (VHH, name in Kabat numbering) VHH: EVQLVESGGGLVQPGGSLRLSCAASGFTFSRSAMGWFRQAPGKGREFVGFITGSGGTTYYGESVKGRFTISRDNAQNPVYLQMNSLRPEDTAVYYCGVYRRTYISSTYSESSEYDYWGQGTLVTVSS | – | – | 3.15 nM | 0.000236 s⁻¹ | 1.56 nM | 151000 M⁻¹ s⁻¹
RANKL18hum5 (VHH) VHH: EVQLVESGGGLVQPGGSLRLSCAASGRTFSRSAMGWFRQAPGKGREFVGFITGSGGTTYYGESVKGRFTISRDNAQNPVYLQMNSLRPEDTAVYYCAVYRRTYISSTYSESSEYDYWGQGTLVTVSS | – | – | 0.253 nM | 9.94e-05 s⁻¹ | 0.232 nM | 429000 M⁻¹ s⁻¹
RANKL18hum7 (VHH) VHH: EVQLVESGGGLVQPGGSLRLSCAASGRTFSRSAMGWFRQAPGKGREFVGFITGSGGTTYYADSVKGRFTISRDNAQNPLYLQMNSLRPEDTAVYYCAVYRRTYISSTYSESSEYDYWGQGTLVTVSS | – | – | 0.572 nM | 0.00027 s⁻¹ | 1.5 nM | –
RANKL18hum2 (VHH, name in Kabat numbering) VHH: EVQLVESGGGLVQPGGSLRLSCAASGRTFSRSAMGWFRQAPGKGREFVSFITGSGGTTYYGESVKGRFTISRDNAQNPVYLQMNSLRPEDTAVYYCGVYRRTYISSTYSESSEYDYWGQGTLVTVSS | – | – | 3.19 nM | 0.000173 s⁻¹ | 2.73 nM | 63400 M⁻¹ s⁻¹
RANKL18hum6Bi_30 (VHH, Bivalent humanized Nanobody; also called RANKL18Hum6-30GS-RANKL18Hum6) EVQLVESGGGLVQPGGSLRLSCAASGRTFSRSAMGWFRQAPGKGREFVGFITGSGGTTYYADSVKGRFTISRDNAQNPVYLQMNSLRPEDTAVYYCAVYRRTYISSTYSESSEYDYWGQGTLVTVSSGGGGSGGGGSGGGGSGGGGSGGGGSGGGGSEVQLVESGGGLVQPGGSLRLSCAASGRTFSRSAMGWFRQAPGKGREFVGFITGSGGTTYYADSVKGRFTISRDNAQNPVYLQMNSLRPEDTAVYYCAVYRRTYISSTYSESSEYDYWGQGTLVTVSS | 0.05 nM | 0.038 nM | – | – | – | –
RANKL18hum6Bi_25 (VHH, Bivalent humanized Nanobody; also called RANKL18Hum6-25GS-RANKL18Hum6) EVQLVESGGGLVQPGGSLRLSCAASGRTFSRSAMGWFRQAPGKGREFVGFITGSGGTTYYADSVKGRFTISRDNAQNPVYLQMNSLRPEDTAVYYCAVYRRTYISSTYSESSEYDYWGQGTLVTVSSGGGGSGGGGSGGGGSGGGGSGGGGSEVQLVESGGGLVQPGGSLRLSCAASGRTFSRSAMGWFRQAPGKGREFVGFITGSGGTTYYADSVKGRFTISRDNAQNPVYLQMNSLRPEDTAVYYCAVYRRTYISSTYSESSEYDYWGQGTLVTVSS | 0.1 nM | 0.038 nM | – | – | – | –

Next, values leading:

IC50 (human RANK-L [1]) | IC50 (human RANK-L [2]) | IC50 (human RANK-L [3]) | koff (human RANK-L [4]) | Kd (human RANK-L [5]) | kon (human RANK-L [5]) | Binder
0.089 nM | 0.076 nM | – | – | – | – | RANKL182biv (VHH, Bivalent Nanobody; also called RANKL18-20GS-RANKL18) EVQLVESGGGLVQAGGSLRLSCAASGRTFSRSAMGWFRQAPGKEREFVGFITGSGGTTYYGESVKGRFTISRDNAQNPVYLQMNSLKPEDTAVYYCGVYRRTYISSTYSESSEYDYWGQGTQVTVSSGGGGSGGGGSGGGGSGGGGSEVQLVESGGGLVQAGGSLRLSCAASGRTFSRSAMGWFRQAPGKEREFVGFITGSGGTTYYGESVKGRFTISRDNAQNPVYLQMNSLKPEDTAVYYCGVYRRTYISSTYSESSEYDYWGQGTQVTVSS
0.049 nM | 0.052 nM | – | – | – | – | RANKL183biv (VHH, Bivalent Nanobody; also called RANKL18-30GS-RANKL18) EVQLVESGGGLVQAGGSLRLSCAASGRTFSRSAMGWFRQAPGKEREFVGFITGSGGTTYYGESVKGRFTISRDNAQNPVYLQMNSLKPEDTAVYYCGVYRRTYISSTYSESSEYDYWGQGTQVTVSSGGGGSGGGGSGGGGSGGGGSGGGGSGGGGSEVQLVESGGGLVQAGGSLRLSCAASGRTFSRSAMGWFRQAPGKEREFVGFITGSGGTTYYGESVKGRFTISRDNAQNPVYLQMNSLKPEDTAVYYCGVYRRTYISSTYSESSEYDYWGQGTQVTVSS
0.019 nM | 0.023 nM | – | – | – | – | RANKL131 (VHH, Bivalent Nanobody; also called RANKL13-9GS-RANKL13) EVQLVESGGGLVQAGGSLRLSCAASGRTFRSYPMGWFRQAPGKEREFVASITGSGGSTYYADSVKGRFTISRDNAKNTVYLQMNSLRPEDTAVYSCAAYIRPDTYLSRDYRKYDYWGQGTQVTVSSGGGGSGGGSEVQLVESGGGLVQAGGSLRLSCAASGRTFRSYPMGWFRQAPGKEREFVASITGSGGSTYYADSVKGRFTISRDNAKNTVYLQMNSLRPEDTAVYSCAAYIRPDTYLSRDYRKYDYWGQGTQVTVSS
0.153 nM | 0.09 nM | – | – | – | – | RANKL91biv (VHH, Bivalent Nanobody; also called RANKL9-9GS-RANKL9) EVQLVESGGGLVQAGGSLRLTCAASGRTFRSYAMGWFRQAPGKEREFVAAINYSGGSTNYADSVKGRFTISRDNAKNTLYLQMNSLEPEDTAVYYCAAGSGYASLSYYSTERAYTYWGQGTQVTVSSGGGGSGGGSEVQLVESGGGLVQAGGSLRLTCAASGRTFRSYAMGWFRQAPGKEREFVAAINYSGGSTNYADSVKGRFTISRDNAKNTLYLQMNSLEPEDTAVYYCAAGSGYASLSYYSTERAYTYWGQGTQVTVSS
0.07 nM | 0.032 nM | – | – | – | – | RANKL92biv (VHH, Bivalent Nanobody; also called RANKL9-20GS-RANKL9) EVQLVESGGGLVQAGGSLRLTCAASGRTFRSYAMGWFRQAPGKEREFVAAINYSGGSTNYADSVKGRFTISRDNAKNTLYLQMNSLEPEDTAVYYCAAGSGYASLSYYSTERAYTYWGQGTQVTVSSGGGGSGGGGSGGGGSGGGGSEVQLVESGGGLVQAGGSLRLTCAASGRTFRSYAMGWFRQAPGKEREFVAAINYSGGSTNYADSVKGRFTISRDNAKNTLYLQMNSLEPEDTAVYYCAAGSGYASLSYYSTERAYTYWGQGTQVTVSS
0.066 nM | 0.048 nM | – | – | – | – | RANKL93biv (VHH, Bivalent Nanobody; also called RANKL9-30GS-RANKL9) EVQLVESGGGLVQAGGSLRLTCAASGRTFRSYAMGWFRQAPGKEREFVAAINYSGGSTNYADSVKGRFTISRDNAKNTLYLQMNSLEPEDTAVYYCAAGSGYASLSYYSTERAYTYWGQGTQVTVSSGGGGSGGGGSGGGGSGGGGSGGGGSGGGGSEVQLVESGGGLVQAGGSLRLTCAASGRTFRSYAMGWFRQAPGKEREFVAAINYSGGSTNYADSVKGRFTISRDNAKNTLYLQMNSLEPEDTAVYYCAAGSGYASLSYYSTERAYTYWGQGTQVTVSS
0.072 nM | 0.03 nM | – | – | – | – | RANKL94biv (VHH, Bivalent Nanobody; also called RANKL9-15GS-RANKL9) EVQLVESGGGLVQAGGSLRLTCAASGRTFRSYAMGWFRQAPGKEREFVAAINYSGGSTNYADSVKGRFTISRDNAKNTLYLQMNSLEPEDTAVYYCAAGSGYASLSYYSTERAYTYWGQGTQVTVSSGGGGSGGGGSGGGGSEVQLVESGGGLVQAGGSLRLTCAASGRTFRSYAMGWFRQAPGKEREFVAAINYSGGSTNYADSVKGRFTISRDNAKNTLYLQMNSLEPEDTAVYYCAAGSGYASLSYYSTERAYTYWGQGTQVTVSS
0.113 nM | 0.134 nM | – | – | – | – | RANKL181biv (VHH, Bivalent Nanobody; also called RANKL18-9GS-RANKL18) EVQLVESGGGLVQAGGSLRLSCAASGRTFSRSAMGWFRQAPGKEREFVGFITGSGGTTYYGESVKGRFTISRDNAQNPVYLQMNSLKPEDTAVYYCGVYRRTYISSTYSESSEYDYWGQGTQVTVSSGGGGSGGGSEVQLVESGGGLVQAGGSLRLSCAASGRTFSRSAMGWFRQAPGKEREFVGFITGSGGTTYYGESVKGRFTISRDNAQNPVYLQMNSLKPEDTAVYYCGVYRRTYISSTYSESSEYDYWGQGTQVTVSS

Reference: patent publication US20110002929A1 (Ablynx, published 2011)
